Measured values taken from patent US20240390531A1 (IMAGINAB, published 2024).
Values belong to the binder of their own block, whether it stands above or below them.

Legend:
[1] = target: T1, purified human FAP antigen (human, UniProt Q12884 26-760, limits assumed); test: ELISA, plate coated with purified human FAP antigen (FIG. 91A)
Experimental: (§1) Binding kinetics of the novel antigen binding constructs to a purified human FAP antigen was assessed using ELISA. For this assay, a 96 well ELISA plate was coated with the human-FAP antigen diluted to a concentration of 2 mg/mL in coating buffer (0.05M sodium carbonate-bicarbonate buffer, pH 9.6). 100 μl of this coating solution was added to each well in the plate and incubate at 4° C. overnight. The plate was washed 3 times with 300 μl per well of washing buffer (PBS with 0.05% Tween-20). After the last wash, the plate was blocked by adding to each well 200 μl of blocking buffer (PBS with 1% BSA) warmed to room temperature. The plate was then incubated at room temperature for 1 hour under gentle agitation. After blocking, the plate was washed 3 times with 300 μl per well of washing buffer. Dilution samples for each minibody were created by making 2.5× dilutions from a starting sample at 100 ng/mL, or 250 ng/mL, or 1000 ng/mL or 3000 ng/mL in 100 μL sample buffer (PBS with 1% BSA). The dilution samples were transferred to the assay plate and incubated at room temperature for 1 hour under gentle agitation. The plate was then washed 3 times with 300 μl per well of washing buffer.

[2] = target: T1, purified human FAP antigen; test: ELISA, plate coated with purified human FAP antigen (FIG. 91D)
Experimental: as §1

human FAP on cells = target: T2, human FAP on cells (human, UniProt Q12884 1-760); test: flow cytometry on U87-MG glioblastoma cells (FIG. 58B)
T2 construct: whole, on cells; The cell line is named under assay; also called HT1080 human FAP cells; HT1080-hFAP cells
Experimental: As disclosed herein, the binding of constructs to cellular targets was assessed using flow cytometry. Stock of 2.5× serial dilution of minibodies were created starting from a concentration of 100 nM in […] FACS buffer (PBS 2% FBS). Cells were added to a Corning V-bottom polypropylene cell culture plate at 200,000 cells/well. The cells were centrifuged at 100 rpm for 3 minutes and the supernatant discarded. The minibody dilution series were transferred to the plate containing cell pellets and incubated for 1 hr at 4° C. The plate was then washed 3 times with FACS buffer at 200 µl/well, discarding supernatant after each wash by centrifugation at 1000 rpm. 50 µl/well of detection antibody R&D AlexaFluor-647 Goat anti Human (H+L) was added at a 1:100 dilution in FACS buffer and incubated at 4° C. 1 hr. The plate was washed 3 times with FACS buffer at 200 µl/well, discarding supernatant after each wash by centrifuging at 1000 rpm. Cells were then fixed by adding 100 µl of 1% paraformaldehyde in PBS and incubating at room temperature for 15 minutes. 100 µl of PBS were added to each well and the plate was analyzed by flow cytometry using the allophycocyanin fluorescence setting.

[3] = target: T1, purified human FAP antigen; test: ELISA, plate coated with purified human FAP antigen (FIG. 56A-56C)
Experimental: as §1
(§2) Detection was performed by adding 100 μl of HRP labeled detection secondary antibody at an appropriate dilution and incubating the plate at room temperature for 1 hour under gentle agitation. The plate was then washed 3 times with 300 μl per well of washing buffer. For color development, 100 μl of TMB substrate regent, pre-warmed to room temperature, was added to the plate and incubated in the dark at room temperature for 15 min. The reaction was then stopped by adding 100 μl of 650 nm stop solution to the plate and mixed for 1 min at room temperature under gentle agitation. The plate is recorded by reading OD at 650 nm in a plate reader within 20 min after terminating the reaction.

FAP = FAP (UniProt Q12884 26-760, limits assumed); test: binding kinetics, method not stated (FIG. 42A)
[4] = target: T1, purified human FAP antigen; test: ELISA, plate coated with purified human FAP antigen (FIG. 56D-56E)
Experimental: as §1, §2

[5] = target: T1, purified human FAP antigen; test: ELISA, plate coated with purified human FAP antigen (FIG. 91E)
Experimental: as §1

[6] = target: T1, purified human FAP antigen; test: ELISA, plate coated with purified human FAP antigen (FIG. 91F)
Experimental: as §1

[7] = target: T1, purified human FAP antigen; test: ELISA, plate coated with purified human FAP antigen (FIG. 91B)
Experimental: as §1

Kd [1]: ~1 nM
B1: IAB16M2-55 (other)
chain: QVQLVQSGAEVKKPGASVKVSCKASGYTFTSYVMHWVRQAPGQGLEWMGYINPHNDGTKYAQKFQGRVTMTRDTSTSTVYMELSSLRSEDTAVYYCARWGIYYGYGAWFAYWGQGTLVTVSSGSTSGGGSGGGSGGGGSSDIQMTQSPSSLSASVGDRVTITCKASQNVGTYVAWFQQKPGKAPKSLIYSASNRYSGVPSRFSGSGSGTDFTLTISSLQPEDFATYYCQQYNTYPYTFGQGTKLEIKEPKSSDKTHTCPPCPPCGGGSSGGGSGGQPREPQVYTLPPSREEMTKNQVSLTCLVKGFYPSDIAVEWESNGQPENNYKTTPPVLDSDGSFFLYSKLTVDKSRWQQGNVFSCSVMHEALHNHYTQKSLSLSPG

Kd [2]: ~0.1 nM
B2: IAB16M2-48 (other)
chain: QVQLVQSGAEVKKPGSSVKVSCKASGFSLTNYDINWVRQAPGQGLEWMGLIWTGGGTNYNQKFQGRVTITKDNSTSTAYMELSSLRSEDTAVYYCVRGGPLVWYALDYWGQGTLVTVSSGSTSGGGSGGGSGGGGSSDIQMTQSPSSLSASVGDRVTITCKASQDVSTAVAWYQQKPGKAPKLLIYSASYRYTGVPSRFSGSGSGTDFTLTISSLQPEDFATYYCQQHYSNPRTFGQGTKVEIK

Kd [1]: ~1 nM
B3: 9A2 (other)
chain 1: EVQLQQSGPELVKPGASVKMSCKASGYTFTSYVMHWLKQKPGQGLEWIGYINPHNDGTKYNEKFKGKATLTSDKSSSTAYMELSSLTSEDSAVYYCARWGIYYGYGAWFAYWGQGTLVTVSA
chain 2: DIVMTQSQKFMSTSVGDRVSVTCKASQNVGTYVAWYQQKPGQSPKALIYSASNRYSGVPDRFTGSGSGTDFTLTISNVQSEDLAEYFCQQYNTYPYTFGGGTKLEIK
notes: also called murine 9A2 construct

Kd (human FAP on cells): ~0.1 nM
Kd [3]: ~0.1 nM
Kd (FAP): 3.34 nM
koff (FAP): 0.00257 s⁻¹
kon (FAP): 769000 M⁻¹ s⁻¹
B4: IAB16M1-12 (other)
chain: DIVMTQSPDSLAVSLGERATINCKSSQSLLYSRNQKNYLAWYQQKPGQPPKLLIFWASTRESGVPDRFSGSGFGTDFTLTISSLQAEDVAVYYCQQYFSYPLTFGQGTKVEIKGSTSGGGSGGGSGGGGSSQVQLVQSGAEVKKPGASVKVSCKTSRYTFTEYTIHWVRQAPGQRLEWIGGINPNNGIPNYNQKFKGRVTITVDTSASTAYMELSSLRSEDTAVYYCARRRIAYGYDEGHAMDYWGQGTLVTVSSEPKSSDKTHTCPPCPPCGGGSSGGGSGGQPREPQVYTLPPSREEMTKNQVSLTCLVKGFYPSDIAVEWESNGQPENNYKTTPPVLDSDGSFFLYSKLTVDKSRWQQGNVFSCSVMHEALHNHYTQKSLSLSPG
notes: also called Sibrotuzumab minibody; the control

Kd [4]: ~1 nM
B5: IAB16C3-21 (other)
chain: DIVMTQSPDSLAVSLGERATINCKSSQSLLYSRNQKNYLAWYQQKPGQPPKLLIFWASTRESGVPDRFSGSGFGTDFTLTISSLQAEDVAVYYCQQYFSYPLTFGQGTKVEIKGGGSGGGGQVQLVQSGAEVKKPGASVKVSCKTSRYTFTEYTIHWVRQAPGQRLEWIGGINPNNGIPNYNQKFKGRVTITVDTSASTAYMELSSLRSEDTAVYYCARRRIAYGYDEGHAMDYWGQGTLVTVSSGGCPPCPPC

Kd [1]: ~1 nM
B6: IAB16M1-54 (other)
chain: DIQMTQSPSSLSASVGDRVTITCKASQNVGTYVAWFQQKPGKAPKSLIYSASNRYSGVPSRFSGSGSGTDFTLTISSLQPEDFATYYCQQYNTYPYTFGQGTKLEIKGSTSGGGSGGGSGGGGSSQVQLVQSGAEVKKPGASVKVSCKASGYTFTSYVMHWVRQAPGQGLEWMGYINPHNDGTKYAQKFQGRVTMTRDTSTSTVYMELSSLRSEDTAVYYCARWGIYYGYGAWFAYWGQGTLVTVSSEPKSSDKTHTCPPCPPCGGGSSGGGSGGQPREPQVYTLPPSREEMTKNQVSLTCLVKGFYPSDIAVEWESNGQPENNYKTTPPVLDSDGSFFLYSKLTVDKSRWQQGNVFSCSVMHEALHNHYTQKSLSLSPG

Kd [2]: ~0.1 nM
B7: IAB16M2-51 (HC-N76S) (other)
chain: QVQLQESGPGLVKPSETLSLTCTVSGFSLTNYDINWIRQPPGKGLEWIGLIWTGGGTNYNPSLKSRVTISKDNSKNQFSLKLSSVTAADTAVYYCVRGGPLVWYALDYWGQGTLVTVSSGSTSGGGSGGGSGGGGSSDIQMTQSPSSLSASVGDRVTITCKASQDVSTAVAWYQQKPGKAPKLLIYSASYRYTGVPSRFSGSGSGTDFTFTISSLQPEDIATYYCQQHYSNPRTFGGGTKVEIKEPKSSDKTHTCPPCPPCGGGSSGGGSGGQPREPQVYTLPPSREEMTKNQVSLTCLVKGFYPSDIAVEWESNGQPENNYKTTPPVLDSDGSFFLYSKLTVDKSRWQQGNVFSCSVMHEALHNHYTQKSLSLSPG

Kd [5]: ~0.1 nM
B8: IAB16M2-52 (other)
chain: QVQLQESGPGLVKPSETLSLTCTVSGFSLTNYDINWIRQPPGKGLEWIGLIWTGGGTNYNPSLKSRVTISKDTSKNQFSLKLSSVTAADTAVYYCVRGGPLVWYALDYWGQGTLVTVSSGSTSGGGSGGGSGGGGSSDIVMTQSPSSLSASVGDRVTITCKASQDVSTAVAWYQQKPGKAPKLLIYSASYRYTGVPSRFSGSGSGTDFTFTISSLQPEDIATYYCQQHYSNPRTFGGGTKVEIKEPKSSDKTHTCPPCPPCGGGSSGGGSGGQPREPQVYTLPPSREEMTKNQVSLTCLVKGFYPSDIAVEWESNGQPENNYKTTPPVLDSDGSFFLYSKLTVDKSRWQQGNVFSCSVMHEALHNHYTQKSLSLSPG

Kd [6]: ~1 nM
B9: IAB16M1-49 (other)
chain: DIQMTQSPSSLSASVGDRVTITCKASQDVGIAVAWYQQKPGKAPKLLIYWASTRHTGVPSRFSGSGSGTDFTFTISSLQPEDIATYYCQQYSRYPYTFGQGTKLEIKGSTSGGGSGGGSGGGGSSDVQLVESGGGLVKPGGSLRLSCTVSGFTFSSYTMSWVRQAPGKGLEWVSTISSGGSYTYYADSVKGRFTISRDNAKNSLYLQMNSLRAEDTAVYYCTRDQVGYAMDYWGQGTLVTVSSEPKSSDKTHTCPPCPPCGGGSSGGGSGGQPREPQVYTLPPSREEMTKNQVSLTCLVKGFYPSDIAVEWESNGQPENNYKTTPPVLDSDGSFFLYSKLTVDKSRWQQGNVFSCSVMHEALHNHYTQKSLSLSPG

Kd [7]: ~0.1 nM
B10: IAB16M1-42 (other)
chain: DIQMTQSPSSLSASVGDRVTITCKASQDVSTAVAWYQQKPGKAPKLLIYSASYRYTGVPSRFSGSGSGTDFTFTISSLQPEDIATYYCQQHYSNPRTFGGGTKVEIKGSTSGGGSGGGSGGGGSSQVQLQESGPGLVKPSETLSLTCTVSGFSLTNYDINWIRQPPGKGLEWIGLIWTGGGTNYNPSLKSRVTISKDTSKNQFSLKLSSVTAADTAVYYCVRGGPLVWYALDYWGQGTLVTVSSEPKSSDKTHTCPPCPPCGGGSSGGGSGGQPREPQVYTLPPSREEMTKNQVSLTCLVKGFYPSDIAVEWESNGQPENNYKTTPPVLDSDGSFFLYSKLTVDKSRWQQGNVFSCSVMHEALHNHYTQKSLSLSPG

Kd [6]: ~10 nM
B11: IAB16M2-50 (other)
chain: DVQLVESGGGLVKPGGSLRLSCTVSGFTFSSYTMSWVRQAPGKGLEWVSTISSGGSYTYYADSVKGRFTISRDNAKNSLYLQMNSLRAEDTAVYYCTRDQVGYAMDYWGQGTLVTVSSGSTSGGGSGGGSGGGGSSDIQMTQSPSSLSASVGDRVTITCKASQDVGIAVAWYQQKPGKAPKLLIYWASTRHTGVPSRFSGSGSGTDFTFTISSLQPEDIATYYCQQYSRYPYTFGQGTKLEIKEPKSSDKTHTCPPCPPCGGGSSGGGSGGQPREPQVYTLPPSREEMTKNQVSLTCLVKGFYPSDIAVEWESNGQPENNYKTTPPVLDSDGSFFLYSKLTVDKSRWQQGNVFSCSVMHEALHNHYTQKSLSLSPG
